Experimental data from patent publication US20190023770A1.

Tests used:
Assay in all cases: cell-based or functional assay
[1] = target: hemagglutinin of influenza A virus H3N2 A/Port Chalmers/1/1973 (influenza A virus A/Port Chalmers/1/1973 (H3N2))
[2] = target: hemagglutinin of influenza A virus H3N2 A/Hong Kong/1/1968 (influenza A virus A/Hong Kong/1/1968 (H3N2)) (UniProt Q91MA7)
[3] = target: hemagglutinin of influenza A virus H3N2 A/Aichi/2/1968 (influenza A virus A/Aichi/2/1968 (H3N2)) (UniProt P03437)

B1: monoclonal antibody 39.29 NWPP (antibody, V domains shown)
VH: EVQLVESGGGVVQPGKSLRLSCAASGLTFSSYAVHWVRQAPGKGLEWVTLISYDGANQYYADSVKGRFTISRDNSKNTVYLQMNSLRPEDTAVYYCAVPGPVFGIFPPWSYFDNWGQGILVTVSS
VL: EIVLTQSPATLSVSPGERATLSCRASQVISHNLAWYQQKPGQAPRLLIYGASTRASGIPARFSGSGSGTDYTLTITSLQSEDFAVYYCQHYSNWPPRLTFGGGTKVEIK
[1]
  in vitro IC50 (neutralization of virus infection of MDCK cells): 2.2 nM
[2]
  in vitro IC50 (neutralization of virus infection of MDCK cells): 45.1 nM
[3]
  in vitro IC50 (neutralization of virus infection of MDCK cells): 35 nM

B2: monoclonal antibody 39.29 NCv1 (antibody, V domains shown)
VH: QVQLVESGGGVVQPGKSPRLSCAASGPTFSSYAVHWVRQAPGKGLEWVTLISYDGANQYYADSVKGRFTISRDNSKNTVYLQMNSLRPEDTAVYYCAVPGPVFGIFPPWSYFDNWGQGILVTVSS
VL: EIVLTQSPATLSVSPGERATLSCRASQVISHNLAWYQQKPGQAPRLLIYGASTRASGIPARFSGSGSGTDYTLTITSLQPEDFAVYYCQHYSNWPPRLTFGGGTKVEIK
[1]
  in vitro IC50 (neutralization of virus infection of MDCK cells): 2.9 nM
[3]
  in vitro IC50 (neutralization of virus infection of MDCK cells): 35 nM
